Source: US20230123178A1 (Hoffmann-La Roche, published 2023)
Blank lines part the entries; values can stand above or below the binder they belong to.

Experiments:
[1] = biological target: T1, full-length human PD1 on cells (human, UniProt Q15116 25-288); test: cell-based or functional assay
[2] = biological target: T1, full-length human PD1 on cells; test: flow cytometry on CHO-K1-huPD1 clone 5 cells
Excerpt: For binding assays on PD1 and 4-1BB expressing tumor cells two genetically modified tumor cells were used. The generation of human expressing HeLa-hu4-1BB-NFκB-luc clone 26 cells will be described in Example 5.3.1. For human PD1 expressing tumor cell lines, CHO-k1 cells were transfected with human PD1 as following: parental adherent CHO-K1 cell line (ATCC CCL-61) was stably transfected with plasmid 15311_hPD1-fl_pUC_Neo coding for full-length human PD1 and selection with G418 (Neomycin resistance marker on plasmid).
0.1×10⁶ tumor cells resuspended in DPBS (Gibco by Life Technologies, Cat. No. 14190 326) were added to each well of a round-bottom suspension cell 96-well plates (greiner bio-one, cellstar, Cat. No. 650185). Cells were washed once with 200 μL DPBS. Cells were resuspended in 100 μL/well of 4° C. cold DPBS buffer containing 1:5000 diluted Fixable Viability Dye eFluor 660 (eBioscience, Cat. No. 65-0864-18) and plates were incubated for 30 minutes at 4° C. […] Data was analyzed using FlowJo V10 (FlowJo, LLC) and GraphPad Prism 6.04 (GraphPad Software, Inc).
(§1) Gates were set on living tumor cells and geo means of fluorescence intensity of PE-conjugated AffiniPure anti-human IgG IgG Fcγ-fragment-specific goat F(ab′)2 fragment were blotted against the titrated concentration of PD1-targeted 4-1BB split trimeric ligand Fc fusion antigen binding molecules or their controls.

[3] = biological target: T1, full-length human PD1 on cells; test: flow cytometry, activated human PBMCs, γδ T cells
Procedure: (§2) Cells were further incubated for 2 days at 37° C. and 5% CO₂
(§3) For the binding assay 0.1×10⁶ fresh or activated PBMCs were added to each well of a round-bottom suspension cell 96-well plates (greiner bio-one, cellstar, Cat. No. 650185). Plates were centrifuged 5 minutes with 350×g and at 4° C. and supernatant were discarded. Afterwards cells were stained in 100 μL/well DPBS containing 1:5000 diluted fixable viability dye eF660 (eBioscience, Cat.-No. 65-0864-18) for 30 minutes at 4° C. in the dark. Cells were washed once with 200 μL ice cold cold DPBS buffer. Next, 50 μL/well of 4° C. cold FACS buffer (DPBS supplied with 2% FBS, 5 mM EDTA pH8 (Amresco, Cat. No. E177) and 7.5 mM Sodium azide (Sigma-Aldrich, Cat.-No. S2002)) containing titrated concentrations of construct 7.1, construct 7.3, construct 7.5 and construct 7.6 and as controls control B, control C, control D, control M and control F were added and cells were incubated for 60 minutes at 4° C., washed three times with 200 μL/well 4° C. FACS buffer. […] Data was analyzed using FlowJo V10 (FlowJo, LLC) and GraphPad Prism 6.04 (GraphPad Software, Inc)

[4] = biological target: T1, full-length human PD1 on cells; test: flow cytometry, freshly isolated resting human PBMCs (table title), CD4 T cells
Procedure: as §3

[5] = biological target: T1, full-length human PD1 on cells; test: flow cytometry, activated human PBMCs, CD4 T cells
Procedure: as §2, §3

human 4-1BB on cells = biological target: T2, human 4-1BB on cells (human, UniProt Q07011 24-255); test: flow cytometry on HeLa-huCD137-NFkB-luc clone 26 cells; PE-conjugated anti-human IgG secondary; geo mean
T2 construct: whole, on cells; also called HeLa-hu4-1BB-NFkB-luc clone 26; HeLa-huCD137-NFkB-luc clone 26 cells
Procedure: Cells were washed once with 200 μL DPBS. Cells were resuspended in 100 μL/well of 4° C. cold DPBS buffer containing 1:5000 diluted Fixable Viability Dye eFluor 660 (eBioscience, Cat. No. 65-0864-18) and plates were incubated for 30 minutes at 4° C. Cells were washed once with 200 μL/well 4° C. cold DPBS buffer and resuspended in 50 μL/well of 4° C. cold FACS buffer (DPBS supplied with 2% FBS, 5 mM EDTA pH8 (Amresco, Cat. No. E177) and 7.5 mM Sodium azide (Sigma-Aldrich S2002)) containing PD1-targeted 4-1BB split trimeric ligand Fc fusion antigen binding molecules at a series of concentrations, followed by incubation for 1 hour at 4° C. After extensive washing, cells were further stained with 50 μL/well of 4° C. cold FACS buffer containing 5 μg/mL PE-conjugated AffiniPure anti-human IgG F(ab′)2-fragment-specific goat F(ab′)2 fragment (Jackson ImmunoResearch, Cat. No. 109 116 098) for 30 minutes at 4° C. Cells were washed twice with 200 μL/well 4° C. […] Data was analyzed using FlowJo V10 (FlowJo, LLC) and GraphPad Prism 6.04 (GraphPad Software, Inc).
as §1

[6] = biological target: T1, full-length human PD1 on cells; test: flow cytometry, activated human PBMCs, CD8 T cells
Procedure: as §2, §3

[7] = biological target: T1, full-length human PD1 on cells; test: flow cytometry, freshly isolated resting human PBMCs (table title), γδ T cells
Procedure: as §3

[8] = biological target: T1, full-length human PD1 on cells; test: flow cytometry, activated human PBMCs, CD19 cells
Procedure: as §2, §3

T1 sequence (Q15116 25-288 limits assumed): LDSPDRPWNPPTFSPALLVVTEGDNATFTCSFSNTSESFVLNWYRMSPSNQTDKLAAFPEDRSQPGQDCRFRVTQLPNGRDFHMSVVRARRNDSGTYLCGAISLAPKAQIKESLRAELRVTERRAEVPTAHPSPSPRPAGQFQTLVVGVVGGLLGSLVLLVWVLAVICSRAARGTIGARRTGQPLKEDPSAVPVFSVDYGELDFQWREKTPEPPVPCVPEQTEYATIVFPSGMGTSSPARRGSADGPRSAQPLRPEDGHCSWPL
T2 sequence (Q07011 24-255): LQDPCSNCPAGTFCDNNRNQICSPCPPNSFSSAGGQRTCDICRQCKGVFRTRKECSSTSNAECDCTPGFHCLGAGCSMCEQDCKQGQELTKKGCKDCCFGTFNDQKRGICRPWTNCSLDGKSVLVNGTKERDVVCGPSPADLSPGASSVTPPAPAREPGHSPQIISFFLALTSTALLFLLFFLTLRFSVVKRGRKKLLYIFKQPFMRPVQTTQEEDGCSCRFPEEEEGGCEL

Percentage of IFN gamma secretion in MLR against rec hu IL-2 (=100%), dilution 1:12 [1]: 99%
Percentage of IFN gamma secretion in MLR against rec hu IL-2 (=100%), dilution 1:120 [1]: 72%
Percentage of IFN gamma secretion in MLR against rec hu IL-2 (=100%), dilution 1:1200 [1]: 21%
B1: PD1-0078 (antibody, V domains shown)
VH: QVQLQQPGAELVKPGASVKMSCKASGYTFTSTWMHWVKQRPGQGLEWIGAIDPSDSYTTYNQKFKGKATLTVDTSSTTAYMQLSSLTSEDSAVYYCTRSPFDYWGQGTTLTVSS
VL: DIVMTQSHKFMSTSVGDRVSITCKASQDVSTAVAWYQQKPGQSPKLLIYSASYRYTGVPDRFTGSGSGTDFTFAISSVQAEDLAVYYCQQHYSHPFTFGSGTKLEIK

Percentage of IFN gamma secretion in MLR against rec hu IL-2 (=100%), dilution 1:12 [1]: 76%
Percentage of IFN gamma secretion in MLR against rec hu IL-2 (=100%), dilution 1:120 [1]: 71%
Percentage of IFN gamma secretion in MLR against rec hu IL-2 (=100%), dilution 1:1200 [1]: 55%
B2: PD1-0069 (antibody, V domains shown)
VH: QVQLQQSGPELVRPGVSVKISCKGSGYTFTDYAMHWVKQSHARTLEWIGVISTYSGDTNYNQKFKDKATMTVDKSSSTAYLELARMTSEDSAIYYCARLGITTGFAYWGQGTLVTVSA
VL: DIVLTQSPASLAVSLGQRATISCRASKGVSTSSYSFMHWYQQKPRQPPKLLIKYASYLESGVPARFSGSGSGTDFTLNIHPVEEEDAATYYCHHSREFPWTFGGGTKLEIK

EC50 [2]: 1.59 nM
EC50 [3]: 0.71 nM
EC50 [4]: 0.03 nM
EC50 [5]: 0.33 nM
binding result (human 4-1BB on cells): no binding (tested: ~300 nM)
EC50 [6]: 0.3 nM
EC50 [7]: 0.03 nM
EC50 [8]: 0.33 nM
B3: anti-PD1(0314) huIgG1 PGLALA (control M) (antibody, V domains shown)
VH: EVQLLESGGGLVQPGGSLRLSCAASGFSFSSYTMSWVRQAPGKGLEWVATISGGGRDIYYPDSVKGRFTISRDNSKNTLYLQMNSLRAEDTAVYYCVLLTGRVYFALDSWGQGTLVTVSS
VL: EIVLTQSPATLSLSPGERATLSCRASESVDTSDNSFIHWYQQKPGQSPRLLIYRSSTLESGIPARFSGSGSGTDFTLTISSLEPEDFAVYYCQQNYDVPWTFGQGTKVEIKR
notes: monospecific IgG1 of clone 0314; also called PD1 targeted human IgG control M

Percentage of IFN gamma secretion in MLR against rec hu IL-2 (=100%), dilution 1:12 [1]: 136%
Percentage of IFN gamma secretion in MLR against rec hu IL-2 (=100%), dilution 1:120 [1]: 96%
Percentage of IFN gamma secretion in MLR against rec hu IL-2 (=100%), dilution 1:1200 [1]: 33%
B4: PD1-0050 (antibody, V domains shown)
VH: DVQLQESGPGLVKPSQSLSLTCTVTGYSITSDYAWNWIRQFPGNKLEWMGYITYTGRTSYNPSLKSRISITRDTSKNQFFLQLNSVTTEDTATYYCAREMDYYGSTLDYWGQGTTLTVSS
VL: KIVLTQSPASLAVSLRQRATISCRASESVDRYGNSFIHWYQQKPGQPPKVLIYRASNLESGFPARFSGSGSRTDFTLTIDPVEADDAATYYCQQNNEDPYTFGSGTKLEIK

Percentage of IFN gamma secretion in MLR against rec hu IL-2 (=100%), dilution 1:12 [1]: 103%
Percentage of IFN gamma secretion in MLR against rec hu IL-2 (=100%), dilution 1:120 [1]: 63%
Percentage of IFN gamma secretion in MLR against rec hu IL-2 (=100%), dilution 1:1200 [1]: 38%
B5: PD1-0073 (antibody, V domains shown)
VH: EVKLVESGGGLVKPGGSLKLSCAASGFTFSNYGMSWIRQTPEKGLEWVATISGGGRDTYYPDSVKGRFTISRDNVKNNLYLQMSSLRSEDTAFYYCASYYYGIDYWGQGTSVTVSS
VL: DIVMTQPHKFMSTSVGDRVRITCKASQDVTTAVAWYQQKPGQSPKLLIYWASTRHTGVPDRFTGSGSGTEFTLTISSVQAEDLALYYCQQHYSIPWTFGGGTKLEIK
